The record followed here is patent publication US20230416378A1.

For the assay, the target named is recombinant human VEGF-A (human) (UniProt P15692). The assay is described as follows: cell-based or functional assay.
Chain of recombinant human VEGF-A (human) (P15692 other isoform, or with tags, fused parts or gaps limits assumed): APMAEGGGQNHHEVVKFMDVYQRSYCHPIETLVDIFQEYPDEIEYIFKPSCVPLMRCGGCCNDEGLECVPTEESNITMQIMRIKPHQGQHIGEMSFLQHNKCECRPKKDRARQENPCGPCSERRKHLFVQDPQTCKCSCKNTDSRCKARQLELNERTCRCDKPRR

Turning to “Eylea (aflibercept), VEGF trap (Fc fusion)”, the VEGF induced cell integrity loss IC50 turned out to be 0.33 nM.
